# T1: IkBα, P25963
# T1 chain: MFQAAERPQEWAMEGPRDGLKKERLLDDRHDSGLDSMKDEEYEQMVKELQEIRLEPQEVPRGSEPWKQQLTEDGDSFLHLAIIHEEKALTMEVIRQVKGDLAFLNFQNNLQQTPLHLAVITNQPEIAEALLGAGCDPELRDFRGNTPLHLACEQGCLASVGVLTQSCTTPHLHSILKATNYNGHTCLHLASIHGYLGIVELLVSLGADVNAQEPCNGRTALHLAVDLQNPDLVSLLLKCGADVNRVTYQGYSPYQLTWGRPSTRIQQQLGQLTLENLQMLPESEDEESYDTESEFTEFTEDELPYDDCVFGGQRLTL
# B1: purified topors (protein)
# chain: MGSQPPLGSPLSREEGEAPPPAPASEGRRRSRRVRLRGSCRHRPSFLGCRELAASAPARPAPASSEIMASAAKEFKMDNFSPKAGTSKLQQTVPADASPDSKCPICLDRFDNVSYLDRCLHKFCFRCVQEWSKNKAECPLCKQPFDSIFHSVRAEDDFKEYVLRPSYNGSFVTPDRRFRYRTTLTRERNASVYSPSGPVNRRTTTPPDSGVLFEGLGISTRPRDVEIPQFMRQIAVRRPTTADERSLRKIQEQDIINFRRTLYRAGARVRNIEDGGRYRDISAEFFRRNPACLHRLVPWLKRELTVLFGAHGSLVNIVQHIIMSNVTRYDLESQAFVSDLRPFLLNRTEHFIHEFISFARSPFNMAAFDQHANYDCPAPSYEEGSHSDSSVITISPDEAETQELDINVATVSQAPWDDETPGPSYSSSEQVHVTMSSLLNTSDSSDEELVTGGATSQIQGVQTNDDLNNDSDDSSDNCVIVGFVKPLAERTPELVELSSDSEDLGSYEKMETVKTQEQEQSYSSGDSDVSRCSSPHSVLGKDEQINKGHCDSSTRIKSKKEEKRSTSLSSPRNLNSSVRGDRVYSPYNHRHRKRGRSRSSDSRSQSRSGHDQKNHRKHHGKKRMKSKRSRSRESSRPRGRRDKKRSRTRDSSWSRRSQTLSLSSESTSRSRSRSSDHGKRRSRSRNRDRYYLRNNYGSRYKWEYTYYSRNKDRDGYESSYRRRTLSRAHYSRQSSSPEFRVQSFSERTNARKKNNHSERKYYYYERHRSRSLSSNRSRTASTGTDRVRNEKPGGKRKYKTRHLEGTNEVAQPSREFASKAKDSHYQKSSSKLDGNYKNESDTFSDSRSSDRETKHKRRKRKTRSLSVEIVYEGKATDTTKHHKKKKKKHKKKHKKHHGDNASRSPVVITIDSDSDKDSEVKEDTECDNSGPQDPLQNEFLAPSLEPFETKDVVTIEAEFGVLDKECDIATLSNNLNNANKTVDNIPPLAASVEQTLDVREESTFVSDLENQPSNIVSLQTEPSRQLPSPRTSLMSVCLGRDCDMS
# Experiments:
# IkBα, P25963 = biological target: T1, IkBα, P25963
# p53, P04637, sequence (P04637 whole entry, looked up): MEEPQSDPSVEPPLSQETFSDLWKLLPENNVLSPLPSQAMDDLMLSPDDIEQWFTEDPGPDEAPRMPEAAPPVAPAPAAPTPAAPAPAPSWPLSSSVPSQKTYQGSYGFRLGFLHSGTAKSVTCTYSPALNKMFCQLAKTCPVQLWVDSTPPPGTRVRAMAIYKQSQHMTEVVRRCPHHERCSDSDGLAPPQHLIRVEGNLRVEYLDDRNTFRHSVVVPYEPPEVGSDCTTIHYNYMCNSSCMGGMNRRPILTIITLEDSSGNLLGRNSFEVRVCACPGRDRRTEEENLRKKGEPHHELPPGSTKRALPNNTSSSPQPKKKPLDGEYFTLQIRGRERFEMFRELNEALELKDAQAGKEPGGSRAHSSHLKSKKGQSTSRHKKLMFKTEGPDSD
protein,measurement,setting,value
B1,sumoylation of p53 in vitro,"p53, P04637","Topors also activates sumoylation of p53, but not IkBα"
same,sumoylation of IkBα in vitro,"IkBα, P25963","Topors also activates sumoylation of p53, but not IkBα"

# — patent US20080038731
